{
  "source": "the RNAGym collection of RNA variant scans (doi:10.1093/molbev/msab373)",
  "parents": {"B1": {"name": "Azoarcus group I ribozyme (parent)", "chain": "GUGCCUUGCGCCGGGAAACCACGCAAGGGAUGGUGUCAAAUUCGGCGAAACCUAAGCGCCCGCCCGGGCGUAUGGCAACGCCGAGCCAAGCUUCGGCGCCUGCGCCGAUGAAGGUGUAGAGACUAGACGGCACCCACCUAAGGCAAACGCUAUGGUGAAGGCAUAGUCCAGGGAGUGGCGAAAGUCACACAAACCGG"}},
  "data": [
    {"variants_of": "B1", "experiment": "reverse-splicing fitness (ratio to wild type); higher = more active; in vitro selection; Mg2+ level not given", "how_it_was_run": "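An in vitro group I ribozyme library with randomized positions was T7-transcribed and gel-purified. In triplicate, 10 pmol RNA in EPPS pH 7.5 was reacted with 50 pmoles of a 30-nt RNA substrate for 1 h at 37 °C across several added MgCl2 levels (1–48 mM), then stopped with EDTA. Products were reverse transcribed from a substrate-complementary primer, PCR-amplified and sequenced (HiSeq 4000). Fitness is a variant's read proportion after selection over that before, normalised to wild type.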", "values": [
      {"variant": "C82A A111C A120U C150U C169U U176G", "reverse-splicing fitness": 0.0027},
      {"variant": "C82A A111C A120U C150U U176A", "reverse-splicing fitness": 0.00771},
      {"variant": "C82A A111C A120U C150U U176C", "reverse-splicing fitness": 0.0107},
      {"variant": "C82A A111C A120U C150U U176G", "reverse-splicing fitness": 0.00381},
      {"variant": "C82A A111C A120U C169A", "reverse-splicing fitness": 0.0037},
      {"variant": "C82A A111C A120U C169A U176A", "reverse-splicing fitness": 0.00417},
      {"variant": "C82A A111C A120U C169A U176C", "reverse-splicing fitness": 0.0037},
      {"variant": "C82A A111C A120U C169A U176G", "reverse-splicing fitness": 0.00184},
      {"variant": "C82A A111C A120U C169G", "reverse-splicing fitness": 0.00388},
      {"variant": "C82A A111C A120U C169G U176A", "reverse-splicing fitness": 0.00421},
      {"variant": "C82A A111C A120U C169G U176C", "reverse-splicing fitness": 0.00315},
      {"variant": "C82A A111C A120U C169G U176G", "reverse-splicing fitness": 0.00234},
      {"variant": "C82A A111C A120U C169U", "reverse-splicing fitness": 0.00555},
      {"variant": "C82A A111C A120U C169U U176A", "reverse-splicing fitness": 0.00613},
      {"variant": "C82A A111C A120U C169U U176C", "reverse-splicing fitness": 0.00626},
      {"variant": "C82A A111C A120U C169U U176G", "reverse-splicing fitness": 0.00199},
      {"variant": "C82A A111C A120U U176A", "reverse-splicing fitness": 0.00732},
      {"variant": "C82A A111C A120U U176C", "reverse-splicing fitness": 0.0115},
      {"variant": "C82A A111C A120U U176G", "reverse-splicing fitness": 0.00382},
      {"variant": "C82A A111C A145C", "reverse-splicing fitness": 0.212},
      {"variant": "C82A A111C A145C C150A", "reverse-splicing fitness": 0.0144},
      {"variant": "C82A A111C A145C C150A C169A", "reverse-splicing fitness": 0.00835},
      {"variant": "C82A A111C A145C C150A C169A U176A", "reverse-splicing fitness": 0.015},
      {"variant": "C82A A111C A145C C150A C169A U176C", "reverse-splicing fitness": 0.0113},
      {"variant": "C82A A111C A145C C150A C169A U176G", "reverse-splicing fitness": 0.0103},
      {"variant": "C82A A111C A145C C150A C169G", "reverse-splicing fitness": 0.0093},
      {"variant": "C82A A111C A145C C150A C169G U176A", "reverse-splicing fitness": 0.0264},
      {"variant": "C82A A111C A145C C150A C169G U176C", "reverse-splicing fitness": 0.0219},
      {"variant": "C82A A111C A145C C150A C169G U176G", "reverse-splicing fitness": 0.00943},
      {"variant": "C82A A111C A145C C150A C169U", "reverse-splicing fitness": 0.00921},
      {"variant": "C82A A111C A145C C150A C169U U176A", "reverse-splicing fitness": 0.0138},
      {"variant": "C82A A111C A145C C150A C169U U176C", "reverse-splicing fitness": 0.0109},
      {"variant": "C82A A111C A145C C150A C169U U176G", "reverse-splicing fitness": 0.00856},
      {"variant": "C82A A111C A145C C150A U176A", "reverse-splicing fitness": 0.0105},
      {"variant": "C82A A111C A145C C150A U176C", "reverse-splicing fitness": 0.0176},
      {"variant": "C82A A111C A145C C150A U176G", "reverse-splicing fitness": 0.00856},
      {"variant": "C82A A111C A145C C150G", "reverse-splicing fitness": 0.0226},
      {"variant": "C82A A111C A145C C150G C169A", "reverse-splicing fitness": 0.00764},
      {"variant": "C82A A111C A145C C150G C169A U176A", "reverse-splicing fitness": 0.00837},
      {"variant": "C82A A111C A145C C150G C169A U176C", "reverse-splicing fitness": 0.00911},
      {"variant": "C82A A111C A145C C150G C169A U176G", "reverse-splicing fitness": 0.00742},
      {"variant": "C82A A111C A145C C150G C169G", "reverse-splicing fitness": 0.00663},
      {"variant": "C82A A111C A145C C150G C169G U176A", "reverse-splicing fitness": 0.00778},
      {"variant": "C82A A111C A145C C150G C169G U176C", "reverse-splicing fitness": 0.00759},
      {"variant": "C82A A111C A145C C150G C169G U176G", "reverse-splicing fitness": 0.00714},
      {"variant": "C82A A111C A145C C150G C169U", "reverse-splicing fitness": 0.0102},
      {"variant": "C82A A111C A145C C150G C169U U176A", "reverse-splicing fitness": 0.00753},
      {"variant": "C82A A111C A145C C150G C169U U176C", "reverse-splicing fitness": 0.0112},
      {"variant": "C82A A111C A145C C150G C169U U176G", "reverse-splicing fitness": 0.00706},
      {"variant": "C82A A111C A145C C150G U176A", "reverse-splicing fitness": 0.00906},
      {"variant": "C82A A111C A145C C150G U176C", "reverse-splicing fitness": 0.016},
      {"variant": "C82A A111C A145C C150G U176G", "reverse-splicing fitness": 0.00408},
      {"variant": "C82A A111C A145C C150U", "reverse-splicing fitness": 0.0486},
      {"variant": "C82A A111C A145C C150U C169A", "reverse-splicing fitness": 0.00801},
      {"variant": "C82A A111C A145C C150U C169A U176A", "reverse-splicing fitness": 0.0127},
      {"variant": "C82A A111C A145C C150U C169A U176C", "reverse-splicing fitness": 0.01},
      {"variant": "C82A A111C A145C C150U C169A U176G", "reverse-splicing fitness": 0.0095},
      {"variant": "C82A A111C A145C C150U C169G", "reverse-splicing fitness": 0.0076},
      {"variant": "C82A A111C A145C C150U C169G U176A", "reverse-splicing fitness": 0.0253},
      {"variant": "C82A A111C A145C C150U C169G U176C", "reverse-splicing fitness": 0.0195},
      {"variant": "C82A A111C A145C C150U C169G U176G", "reverse-splicing fitness": 0.00845},
      {"variant": "C82A A111C A145C C150U C169U", "reverse-splicing fitness": 0.0121},
      {"variant": "C82A A111C A145C C150U C169U U176A", "reverse-splicing fitness": 0.0133},
      {"variant": "C82A A111C A145C C150U C169U U176C", "reverse-splicing fitness": 0.0108},
      {"variant": "C82A A111C A145C C150U C169U U176G", "reverse-splicing fitness": 0.00776},
      {"variant": "C82A A111C A145C C150U U176A", "reverse-splicing fitness": 0.0236},
      {"variant": "C82A A111C A145C C150U U176C", "reverse-splicing fitness": 0.0355},
      {"variant": "C82A A111C A145C C150U U176G", "reverse-splicing fitness": 0.00993},
      {"variant": "C82A A111C A145C C169A", "reverse-splicing fitness": 0.00711},
      {"variant": "C82A A111C A145C C169A U176A", "reverse-splicing fitness": 0.0135},
      {"variant": "C82A A111C A145C C169A U176C", "reverse-splicing fitness": 0.00942},
      {"variant": "C82A A111C A145C C169A U176G", "reverse-splicing fitness": 0.00693},
      {"variant": "C82A A111C A145C C169G", "reverse-splicing fitness": 0.00923},
      {"variant": "C82A A111C A145C C169G U176A", "reverse-splicing fitness": 0.0269},
      {"variant": "C82A A111C A145C C169G U176C", "reverse-splicing fitness": 0.0216},
      {"variant": "C82A A111C A145C C169G U176G", "reverse-splicing fitness": 0.00783},
      {"variant": "C82A A111C A145C C169U", "reverse-splicing fitness": 0.0124},
      {"variant": "C82A A111C A145C C169U U176A", "reverse-splicing fitness": 0.0142},
      {"variant": "C82A A111C A145C C169U U176C", "reverse-splicing fitness": 0.0138},
      {"variant": "C82A A111C A145C C169U U176G", "reverse-splicing fitness": 0.00646},
      {"variant": "C82A A111C A145C U176A", "reverse-splicing fitness": 0.0639},
      {"variant": "C82A A111C A145C U176C", "reverse-splicing fitness": 0.0878},
      {"variant": "C82A A111C A145C U176G", "reverse-splicing fitness": 0.0188},
      {"variant": "C82A A111C A145G", "reverse-splicing fitness": 0.258}
    ]}
  ]
}
